These results are taken from patent US12258605B2, “Alkane oxidation by modified hydroxylases” (The California Institute of Technology, priority 2005, dated 2025).

Residue numbers refer to the chain shown, from its start. Names may count otherwise.

The nature of test [1]: Propane hydroxylation (rate, total turnover, products). Format: biochemical. Here is the method:
Cell lysates for high throughput screening were prepared as described previously (Peters et al., J. Am. Chem. Soc. 125:13442 (2003); incorporated by reference herein). High-throughput dimethyl ether (DME) screens were performed in 96 well plates as described previously. Improved mutants were selected based on an increased signal compared to 9-10A (for the saturation mutagenesis libraries) and 1-12G (for the recombination library). Reactions on octane and propane were analyzed by gas chromatography as described.
Rates of ethanol formation were measured over 30 min using gas chromatography (GC) coupled to an electron capture detector (ECD) and are reported as nmol ethanol/min/nmol enzyme. Errors are at most 10%. Total turnover number (ttn) was measured using GC after completion of the reaction and is reported as nmol product/nmol protein. Errors are at most 10%. Initial rates of propanol and octanol formation were measured over 1 min by GC and are reported as nmol product/min/nmol protein. Errors are at most 15%. The “ee” of 2-octanol (main product) was measured by GC; the favored enantiomer is listed in parenthesis. Wild-type P450 BM-3 primarily produces 3- and 4-octanol. The yields were not sufficient for the determination of ee for wt BM-3. Mutant 9-10A contains amino acid substitutions R47C, V78A K94I, P142S, T175I, A184V, F205C, S226R, H236Q, E252G, R255S, A290V, and L353V.
In Table 5 the product distribution is determined as ratio of a specific alcohol product to the total amount of all alcohol products (given in %). The product distribution for ketones was similar to alcohol product distribution. The numbers reported here are the (%) total of all ketones relative to total products (alcohols+ketones). The favored enantiomer is listed in parentheses.
For the data shown in Table 6 the initial NADPH consumption rates were measured over 15 seconds at 340 nm as nmol NADPH/min/nmol protein. Octane reactions contained 100 nM P450, 166 uM NADPH, and 4 mM octane in 1% ethanol and potassium phosphate buffer. […] Errors are at most 10%. Initial rates were measured by GC over 1 minute as nmol total products/min/nmol protein. Octane reactions contained 100 nM P450, 500 uM NADPH, and 4 mM octane in 1% ethanol and potassium phosphate buffer. Propane reactions contained 1 uM P450, 500 uM NADPH, and propane-saturated potassium phosphate buffer. Coupling was determined by ratio of product formation rate to NADPH consumption rate. Total turnover numbers were determined as nmol product/nmol enzyme. Octane reactions contained 10-25 nM P450, 500 uM NADPH, and 4 mM octane in 1% ethanol and potassium phosphate buffer. Propane reactions contained 10-25 nM protein, potassium phosphate buffer saturated with propane, and an NADPH regeneration system containing 100 uM NADP+, 2 U/mL isocitrate dehydrogenase, and 10 mM isocitrate.

A short description of test [2]: Methane to methanol conversion (alcohol oxidase/Purpald). Conditions: for Methane TTN: methane to methanol. Format: biochemical. As to the method:
The 35-E11 variant was tested for the ability to convert methane to methanol using the method of Anthon and Barrett (Agric. Food Chem., 52:3749 (2004)). The method was optimized so that it could detect methanol concentrations in water as low as 10 μM.
The mutant BM-3 enzymes described below were purified using published procedures and used as catalysts in small reactions with methane. In glass head space vials containing magnetic stirring bars, BM-3 catalyst was added to 0.1 M potassium phosphate buffer (pH=8) saturated with methane. The vials were then crimped shut and charged to 20 psi with methane. To start the biotransformation, an NADPH regeneration system consisting of NADP+, isocitrate, and isocitric dehydrogenase was added through a syringe. The reaction was allowed to stir 12-15 hours. Methanol production was measured using a coupled enzyme assay. Aliquots of the reaction were transferred to 96-well microtitre plates and reacted with the enzyme alcohol oxidase for 5 minutes at room temperature. Alcohol oxidase converts the methanol produced by the BM-3 variants into formaldehyde which can be detected with the dye Purpald. To detect formaldehyde and quench the alcohol oxidase reaction, a solution of Purpald in 2 M NaOH was added and allowed to react for one hour. The purple color that Purpald forms in the presence of formaldehyde was quantified one hour later by spectrophotometrically reading the well at 550 nm and comparing the absorbance against similarly-treated solutions of BM-3, NADPH regeneration system, and methane-free buffer spiked with known concentrations of methanol. The results of these biotransformations are reported in Table 3 and sample spectra from the colorimetric assay are shown in FIG. 7.
Reactions for enzyme-catalyzed conversion of methane to methanol were carried out in 10 mL glass headspace vials. A 470 μL reaction mixture containing 5 μM purified BM-3 variant in 0.1 M potassium phosphate buffer (pH 8.0) was first added to the vial. The vial was immediately topped with a septum, pressurized with 30 psi of methane and shaken at 4° C. for 1 hour. […] For determination of total turnover, the reaction was allowed to proceed for 20 hours at room temperature.
The amount of methanol product formed during the 20 hr methane reaction was quantified colorimetrically with the use of alcohol oxidase and Purpald. 190 μL of the reaction mixture is transferred onto a single cell of a 96 well plate. 10 μL of 0.05 U/μL solution of alcohol oxidase (from Pichia pastoris, purchased from Sigma-Aldrich) was added to cell and allowed to incubate at room temperature for 5 minutes. During this time, the alcohol oxidase converts the methanol into formaldehyde. Purpald (168 mM in 2 M NAOH) was then added to form a purple product with the formaldehyde in solution. The purple color was read approximately 1 hour later at 550 nm using a Spectramax Plus microtiter plate reader. The concentration of methanol was determined based on the measure absorbance in comparison to a methanol calibration curve. The methanol calibration curve was generated with several standards. Each standard contained 100 μL of a methanol solution (10, 20, 40, 60, 100 μM) and 90 μL of the methane reaction mixture described above, without the methane pressurization.
The relative dimethyl ether (DME) activity was measured, 1 hour after treatment with Purpald, as the average net and absorbance at 550 nm from 8 microtitre plate DME reactions of the mutant compared to 8 equivalent reactions of 35-E11. All values were normalized by measuring the P450 concentration in each well with CO binding. “Asteriks” indicate criteria used to select mutants from libraries for further characterization. The oxidation rate is measured as absorbance change at 340 nm over 1 minute upon the addition of NADPH to 8 microtitre plate wells containing P450-containing cell lysate and compared to 8 equivalent reactions of 35-E11. […]

B1: Wild-type BM-3: wild-type cytochrome P450 BM-3 from Bacillus megaterium, SEQ ID NO:1 (protein, listed as Bacillus megaterium)
chain: TIKEMPQPKTFGELKNLPLLNTDKPVQALMKIADELGEIFKFEAPGRVTRYLSSQRLIKEACDESRFDKNLSQALKFVRDFAGDGLFTSWTHEKNWKKAHNILLPSFSQQAMKGYHAMMVDIAVQLVQKWERLNADEHIEVPEDMTRLTLDTIGLCGFNYRFNSFYRDQPHPFITSMVRALDEAMNKLQRANPDDPAYDENKRQFQEDIKVMNDLVDKIIADRKASGEQSDDLLTHMLNGKDPETGEPLDDENIRYQIITFLIAGHETTSGLLSFALYFLVKNPHVLQKAAEEAARVLVDPVPSYKQVKQLKYVGMVLNEALRLWPTAPAFSLYAKEDTVLGGEYPLEKGDELMVLIPQLHRDKTIWGDDVEEFRPERFENPSAIPQHAFKPFGNGQRACIGQQFALHEATLVLGMMLKHFDFEDHTNYELDIKETLTLKPEGFVVKAKSKKIPLGGIPSPSTEQSAKKVRKKAENAHNTPLLVLYGSNMGTAEGTARDLADIAMSKGFAPQVATLDSHAGNLPREGAVLIVTASYNGHPPDNAKQFVDWLDQASADEVKGVRYSVFGCGDKNWATTYQKVPAFIDETLAAKGAENIADRGEADASDDFEGTYEEWREHMWSDVAAYFNLDIENSEDNKSTLSLQFVDSAADMPLAKMHGAFSTNVVASKELQQPGSARSTRHLEIELPKEASYQEGDHLGVIPRNYEGIVNRVTARFGLDASQQIRLEAEEEKLAHLPLAKTVSVEELLQYVELQDPVTRTQLRAMAAKTVCPPHKVELEALLEKQAYKEQVLAKRLTMLELLEKYPACEMKFSEFIALLPSIRPRYYSISSSPRVDEKQASITVSVVSGEAWSGYGEYKGIASNYLAELQEGDTITCFISTPQSEFTLPKDPETPLIMVGPGTGVAPFRGFVQARKQLKEQGQSLGEAHLYFGCRSPHEDYLYQEELENAQSEGIITLHTAFSRMPNQPKTYVQHVMEQDGKKLIELLDQGAHFYICGDGSQMAPAVEATLMKSYADVHQVSEADARLWLQQLEEKGRYAKDVWAG
For the molecule B1, the results for the activity on propane result in test [1] (listed as P450BM3), in test [1] (listed as wild-type P450BM3) and in test [1] (listed as wildtype cytochrome P450 BM-3) were “no measurable activity”, “no detectable propane activity” and “inactive”, respectively.

B2: 35-E11: P450 BM-3 variant, SEQ ID NO:7: 53-5H substitutions plus E464G and I710T (protein)
chain: TIKEMPQPKTFGELKNLPLLNTDKPVQALMKIADELGEIFKFEAPGCVTRYLSSQRLIKEACDESRFDKNLSQALKFFRDFSGDGLFTSWTHEINWKKAHNILLPSFSQQAMKGYHAMMVDIAVQLVQKWERLNADEHIEVSEDMTRLTLDTIGLCGFNYRFNSFYRDQPHPFIISMVRALDEVMNKLQRANPDDPAYDENKRQCQEDIKVMNDLVDKIIADRKARGEQSDDLLTQMLNGKDPETGEPLDDGNISYQIITFLIAGHETTSGLLSFALYFLVKNPHVLQKVVEEAARVLVDPVPSYKQVKQLKYVGMVLNEALRLWPTFPAFSLYAKEDTVLGGEYPLEKGDEVMVLIPQLHRDKTIWGDDVEEFRPERFENPSAIPQHAFKPFGNGQRACIGQQFALHEATLVLGMMLKHFDFEDHTNYELDIKETLTLKPEGFVVKAKSKKIPLGGIPSPSTGQSAKKVRKKAENAHNTPLLVLYGSNMGTAEGTARDLADIAMSKGFAPQVATLDSHAGNLPREGAVLIVTASYNGHPPDNAKQFVDWLDQASADEVKGVRYSVFGCGDKNWATTYQKVPAFIDETLAAKGAENIADRGEADASDDFEGTYEEWREHMWSDVAAYFNLDIENSEDNKSTLSLQFVDSAADMPLAKMHGAFSTNVVASKELQQPGSARSTRHLEIELPKEASYQEGDHLGVIPRNYEGTVNRVTARFGLDASQQIRLEAEEEKLAHLPLAKTVSVEELLQYVELQDPVTRTQLRAMAAKTVCPPHKVELEALLEKQAYKEQVLAKRLTMLELLEKYPACEMKFSEFIALLPSIRPRYYSISSSPRVDEKQASITVSVVSGEAWSGYGEYKGIASNYLAELQEGDTITCFISTPQSEFTLPKDPETPLIMVGPGTGVAPFRGFVQARKQLKEQGQSLGEAHLYFGCRSPHEDYLYQEELENAQSEGIITLHTAFSRMPNQPKTYVQHVMEQDGKKLIELLDQGAHFYICGDGSQMAPAVEATLMKSYADVHQVSEADARLWLQQLEEKGRYAKDVWAG
modifications: mutant P450 35-E11 protein sequence
B2: the “methanol production from methane” value in test [2] (assay detects methanol as low as 10 μM) was “producing methanol from methane”. Besides, the “Methane TTN” value in test [2] is listed as 8. Further, in test [1] (after completion of the reaction), the Propane ttn amounted to 6000 nmol product/nmol protein. In addition, in test [1] (initial rate of propanol formation over 1 min by GC), the “Propane Rate” value is 210 nmol product/min/nmol protein.

B3: 20-D3: P450 BM-3 variant, SEQ ID NO:11; 35-E11 plus H285R (protein)
chain: B2 chain with H285R
modifications: mutant P450 20-D3 protein sequence
notes: 35-E11 plus H285R
With B3, the “Methane TTN” value in test [2] was 10.
